Measured values as given in patent US6103888A, “Mammalian cationic proteins having lipopolysaccharide binding and anti-coagulant activity” (priority 1999, dated 2000).
Values joined by “and” are separate entries in the source; they are usually repeats but may differ in a detail not shown here. Equal entries are not always repeated.

What was measured:
[1] = test system: galactosamine-sensitized mice; assay type: in vivo; conditions: CAP18 40 μg IP alone, no galactosamine, no Re-LPS; groups of 10 mice
Description: Galactosamine sensitizes mice to the lethal effects of LPS by a factor 1000 or more. CAP18 and LPS were mixed and injected IP into sensitized mice. CAP18 can neutralize the lethal effects of LPS in this model of endotoxemia (see Table 8).

human mononuclear cells = experiment: LPS-induced tissue factor by human mononuclear cells (clotting assay); assay type: cell-based
Experimental: Human mononuclear cells were separated from citrated peripheral blood by centrifugation over Sodium-metrizoate-Ficoll (lymphocyte Separation Medium, Japan Antibody Institute, Gumma). The resulting mixed mononuclear cell suspension was washed 3 times with RPMI 1640 media. Cell suspension (1×10^6 /ml) was stimulated with LPS for 16 to 18 hr.
Veronal buffered saline (VBS) was added to the cell pellet, lysed by 3 cycles of freeze/thaw and sonicated for 10 sec with a hand-held sonicator microbe (Handy Sonic, model UR-20P, Tomy Seiko LTD, Tokyo). Tissue factor activity was tested in modified unactivated partial thromboplastin time (7). One tenth ml of cell lysate (1×10^6 /ml) was preincubated with mouse plasma at 37° C. for 3 min. Then 0.1 ml of 25 mM-CaCl2 which contains phospholipid was added to the mixture and clotting time was measured using a fibrometer (Bio Quest Division, Becton Dickinson, Cokeysville, USA). A standard curve obtained from serial two-fold dilutions of rabbit brain thromboplastic (Simplastin, Ono Pharmaceutical Co.) was used to transpose tissue factor activity into arbitrary tissue factor units (1 μg/ml) suspension of rabbit brain was assigned a value of 1,000 units).
The mean tissue factor units+standard error was determined from three to four samples. Student's t test for unpair data was used to determine the statistically significant differences. A two-tailed P value of <0.05 was considered significant. […]

[2] = test system: rough mutant strain of Proteus mirabilis; conditions: cited from earlier work
encapsulated E. coli = conditions: cited from earlier work
[3] = test system: wild-type smooth Proteus mirabilis; conditions: wild-type smooth organism (Proteus mirabilis); cited from earlier work
Staphylococcus aureus = conditions: Gram-positive Staphylococcus aureus; cited from earlier work
[4] = LPS 0.1 μg/ml, peptide HA units: RNIP 2, CAP-18 1, HP-1 4, HP-2 2

| Molecule | Lethality (%) [1] [%] | Inhibition (%) (human mononuclear cells; [4]) | Tissue Factor Units, value in parentheses (ratio to unstimulated control) (human mononuclear cells; [4]) | Δ Units (%) (human mononuclear cells; LPS 0.1 μg/ml, relative to LPS alone (100)) | Tissue Factor Units, value in parentheses (ratio to unstimulated control) (human mononuclear cells; no LPS, peptide alone) | Tissue factor units (human mononuclear cells; no LPS, peptide alone) | Δ Units (human mononuclear cells; no LPS, peptide alone) [Units] | growth inhibition [2] | growth inhibitory activity, reduction over control (encapsulated E. coli) | growth inhibition [3] | growth inhibition (Staphylococcus aureus) |
| --- | --- | --- | --- | --- | --- | --- | --- | --- | --- | --- | --- |
| CAP18: cationic protein from rabbit granulocytes, 16.6 kD, SEQ ID NO:4 (protein) METHKHGPSLAWWSLLLLLLGLLMPPAIAQDLTYREAVLRAVDAFNQQSSEANLYRLLSMDPQQLEDAKPYTPQPVSFTVKETECPRTTWKLPEQCDFKEDGLVKRCVGTVTRYQAWDSFDIRCNRAQESPEPTGLRKRLRKFRNKIKEKLKKIGQKIQGLLPKLAPRTDY | 0 | 30% and 35% | 9.9 | 70% and 65% | 1.2 | 583 ± 178 Units ×10^3 /3.6 × 10^4 cells | 235 | – | – | – | – |
| BPI55: BPI holoprotein (protein, UniProt P17213 32-487, looked up) Bactericidal …: VNPGVVVRISQKGLDYASQQGTAALQKELKRIKIPDYSDSFKIKHLGKGHYSFYSMDIREFQLPSSQISMVPNVGLKFSISNANIKISGKWKAQKRFLKMSGNFDLSIEGMSISADLKLGSNPTSGKPTITCSSCSSHINSVHVHISKSKVGWLIQLFHKKIESALRNKMNSQVCEKVTNSVSSELQPYFQTLPVMTKIDSVAGINYGLVAPPATTAETLDVQMKGEFYSENHHNPPPFAPPVMEFPAAHDRMVYLGLSDYFFNTAGLVYQEAGVLKMTLRDDMIPKESKFRLTTKFFGTFLPEVAKKFPNMKIQIHVSASTPPHLSVQPTGLTFYPAVDVQAFAVLPNSSLASLFLIGMHTTGSMEVSAESNRLVGELKLDRLLLELKHSNIGPFPVELLQDIMNYIVPILVLPRVNEKLQKGFPLPTPARVQLYNVVLQPHQNFLLFGADVVYK | – | – | – | – | – | – | – | inhibited the growth | about 100 fold | only the rBPI23 inhibited growth | Neither rBPI23 nor holoprotein BPI55 demonstrated inhibition |
